Numbering of substitutions follows the chain as printed. Names may count otherwise.
Experiments:
CtNDT [1] = target: T1, CtNDT (Chroococcidiopsis thermalis, UniProt K9TVX3); assay: steady-state kinetics (details in supplement); assay type: biochemical; details: nucleobase acceptor; kcat/KM only said to be similar
T1 construct: gene Chro_1188; homotetramer; residues 111 and 118 of the neighbouring subunit complete the site; expression host and tags only in supplement

CtNDT [2] = target: T2, CtNDT (Chroococcidiopsis thermalis, UniProt K9TVX3, Y7F); assay: X-ray crystal structure; assay type: binding; details: active site; ligand placed in 2 of 4 protomers, less defined density
T2 construct: gene Chro_1188; homotetramer; residues 111 and 118 of the neighbouring subunit complete the site; expression host and tags only in supplement

CtNDT [3] = target: T3, CtNDT (Chroococcidiopsis thermalis, UniProt K9TVX3, A9S/Y7F); assay: binding assay (details in supplement)
T3 construct: gene Chro_1188; homotetramer; residues 111 and 118 of the neighbouring subunit complete the site; expression host and tags only in supplement

CtNDT [4] = target: T4, CtNDT (Chroococcidiopsis thermalis, UniProt K9TVX3, Y7F/A9S); assay: X-ray crystal structure; details: active site, ribosyl-binding pocket
T4 construct: gene Chro_1188; homotetramer; residues 111 and 118 of the neighbouring subunit complete the site; expression host and tags only in supplement

CtNDT [5] = target: T5, CtNDT (Chroococcidiopsis thermalis, UniProt K9TVX3, A9S); assay: HPLC initial rates, Michaelis-Menten; assay type: biochemical; details: adenine as nucleobase acceptor
T5 construct: gene Chro_1188; homotetramer; residues 111 and 118 of the neighbouring subunit complete the site; expression host and tags only in supplement

CtNDT [6] = target: T6, CtNDT (Chroococcidiopsis thermalis, UniProt K9TVX3, V85S); assay: HPLC initial rates, Michaelis-Menten; assay type: biochemical; details: adenine as nucleobase acceptor
T6 construct: gene Chro_1188; homotetramer; residues 111 and 118 of the neighbouring subunit complete the site; expression host and tags only in supplement

[7] = substrate: OC[C@H]1O[C@@H](n2cnc3c(O)ncnc32)[C@H](O)[C@@H]1O; assay: HPLC initial rates, Michaelis-Menten; assay type: biochemical, Chroococcidiopsis thermalis; details: adenine as nucleobase acceptor
[8] = substrate: OC[C@H]1O[C@@H](n2cnc3c(O)ncnc32)[C@H](O)[C@@H]1O; assay: HPLC initial rates, Michaelis-Menten; assay type: biochemical, Chroococcidiopsis thermalis; details: adenine as nucleobase acceptor; remark: listed apart in the source
Excerpt: HPLC initial rates, Michaelis-Menten on CtNDT | evaluated with inosine as the sugar donor and adenine as the […]

T1 sequence (K9TVX3 entry or part of it): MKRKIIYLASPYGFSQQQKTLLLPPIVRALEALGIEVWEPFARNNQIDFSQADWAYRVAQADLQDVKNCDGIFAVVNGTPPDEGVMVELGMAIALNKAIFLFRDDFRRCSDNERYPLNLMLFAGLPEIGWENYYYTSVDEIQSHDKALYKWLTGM
T5 sequence (K9TVX3 entry or part of it A9S): as the sequence (K9TVX3 entry or part of it) above, with A9S counted along it
T2 sequence (K9TVX3 entry or part of it Y7F): as the sequence (K9TVX3 entry or part of it) above, with Y7F counted along it
T3 sequence (K9TVX3 entry or part of it Y7F/A9S): as the sequence (K9TVX3 entry or part of it) above, with Y7F, A9S counted along it
T4 sequence (K9TVX3 entry or part of it Y7F/A9S): as the sequence (K9TVX3 entry or part of it) above, with Y7F, A9S counted along it
T6 sequence (K9TVX3 entry or part of it V85S): as the sequence (K9TVX3 entry or part of it) above, with V85S counted along it

Q: With O=c1[nH]cnc2nc[nH]c12 [hypoxanthine] as the molecule, how does the “k cat/K M” value (CtNDT [1]) read?
A: The value was “uric acid, xanthine, and hypoxanthine, which have similar k cat/K M values”.

Q: Which “k cat/K M” value (CtNDT [1]) does the source give for O=c1[nH]c(=O)c2[nH]cnc2[nH]1 [xanthine] here?
A: Its value is “uric acid, xanthine, and hypoxanthine, which have similar k cat/K M values”.

Q: For O=c1[nH]cnc2c([C@@H]3N[C@H](CO)[C@@H](O)[C@H]3O)c[nH]c12 [Immucillin-H], which X-ray crystal structure (CtNDT [2]) is on record?
A: Its X-ray crystal structure is 9EMWCtNDTY7F bound to ImmH.

Q: And the Kd (CtNDT [3])?
A: Its Kd is 590 µM.

Q: How did the X-ray crystal structure (CtNDT [4]) turn out when Nc1ncnc2c1ncn2[C@@H]1O[C@H](CO)C[C@H]1O [cordycepin] was run?
A: Its X-ray crystal structure is 9EMXCtNDTY7F‑A9S bound to Cordycepin.

Q: Which results are given for O=c1[nH]cnc2c1ncn2[C@@H]1O[C@H](CO)[C@@H](O)[C@H]1O [inosine]?
A: K M-inosine (CtNDT [5]): These mutants had modest changes in K M‑inosine; K M-inosine (CtNDT [6]): These mutants had modest changes in K M‑inosine

B1: CtNDT (Chroococcidiopsis thermalis PCC 7203; Y7A) (protein)
chain: MKRKIIALASPYGFSQQQKTLLLPPIVRALEALGIEVWEPFARNNQIDFSQADWAYRVAQADLQDVKNCDGIFAVVNGTPPDEGVMVELGMAIALNKAIFLFRDDFRRCSDNERYPLNLMLFAGLPEIGWENYYYTSVDEIQSHDKALYKWLTGM
notes: homotetramer; residues 111 and 118 of the neighbouring subunit complete the site; expression host and tags only in supplement
Q: Which Km [7] does the source give for B1 here?
A: The Km was 530 ± 10 µM.

Q: And the kcat [7]?
A: The kcat was 0.02 ± 0.01 s⁻¹.

B2: CtNDT (Chroococcidiopsis thermalis PCC 7203) (protein)
chain: B1 chain with A7Y
notes: as for B1
Q: With B2 as the molecule, how does the Km [8] read?
A: The Km was 920 ± 240 µM.

Q: What about the kcat [8] of the same molecule?
A: The kcat was 0.01 ± 0.01 s⁻¹.

B3: CtNDT (Chroococcidiopsis thermalis PCC 7203; D62N) (protein)
chain: B1 chain with A7Y, D62N
notes: as for B1
Q: What does the source list for B3?
A: Km [7]: 800 ± 90 µM; kcat [7]: 0.002 ± 0.001 s⁻¹

B4: CtNDT (Chroococcidiopsis thermalis PCC 7203; A9S/Y7F) (protein)
chain: B1 chain with A7F, A9S
notes: as for B1
Q: For B4, which Km [7] is on record?
A: Its Km is 620 µM.

B5: CtNDT (Chroococcidiopsis thermalis PCC 7203; Y7F) (protein)
chain: B1 chain with A7F
notes: as for B1
Q: B5 was tested. Which Km [7] did it give?
A: The Km was 710 ± 170 µM.

Q: And the kcat [7]?
A: Its kcat is 0.03 ± 0.01 s⁻¹.
